Data from article PMC7026339, “Human bone morphogenetic protein-2 (hBMP-2) characterization by physical–chemical, immunological and biological assays” (AMB Express, 2020).

B1: CHO-derived hBMP-2 (Infuse, Medtronic), 114 amino acid glycosylated subunit (form A) (natural protein, human, UniProt P12643 283-396, looked up)
chain: QAKHKQRKRLKSSCKRHPLYVDFSDVGWNDWIVAPPGYHAFYCHGECPFPLADHLNSTNHAIVQTLVNSVNSKIPKACCVPTELSAISMLYLDENEKVVLKNYQDMVVEGCGCR
modifications: glycosylated at one site with high-mannose-type glycans
notes: human bone morphogenetic protein-2, authentic mature protein of 114 AA without initial Met (backbone 12,905 Da); Infuse is a disulfide-linked dimeric protein with two major subunit species of 114 and 131 amino acids; this molecule is the 114 AA subunit; also called 14,377 Da form; 114 AA monomer
B2: E. coli-derived methionyl-human bone morphogenetic protein-2 (met-hBMP-2, GenScript) (natural protein)
chain: MQAKHKQRKRLKSSCKRHPLYVDFSDVGWNDWIVAPPGYHAFYCHGECPFPLADHLNSTNHAIVQTLVNSVNSKIPKACCVPTELSAISMLYLDENEKVVLKNYQDMVVEGCGCR
notes: initial methionine of methionyl-hBMP-2 (printed as 'initial Met'); human bone morphogenetic protein-2, mature protein of 114 AA (theoretical backbone 12,905 Da without the initial Met; 13,036 Da with it); theoretical mass of the dimer 26,072 Da; also called E. coli-derived hBMP-2; GenScript preparation; source: bought: GenScript (from E. coli), lyophilized, reconstituted in 20 mM acetic acid

Target: the molecule itself
Experiment: SDS-PAGE and Western blotting under non-reducing conditions; 15% acrylamide gel, Coomassie Blue G stain; Western blot with anti-hBMP-2 rabbit IgG; non-reducing conditions; shows the disulfide-linked dimer

| Protein | stoichiometry N |
| --- | --- |
| B1 | 2 |
| B2 | 2 |
